Laboratory results as given in patent publication US20260242485A1 (LEPU BIOPHARMA, published 2026).

Experiments:
[1] = target: T1, human CD16A-158F expressed on CHO-K1 cells (human, UniProt P08637 17-254); assay: flow cytometry, CHO-K1-hCD16A-158F cells, geometric mean
T1 construct: whole, on cells

[2] = target: T2, human GPC3 on HepG2 cells (human, UniProt P51654 25-554); assay: flow cytometry, HepG2 cells (GPC3 positive), geometric mean
T2 construct: whole, on cells; also called GPC3-positive HepG2 cells
T2 sequence (P51654 25-554 limits assumed): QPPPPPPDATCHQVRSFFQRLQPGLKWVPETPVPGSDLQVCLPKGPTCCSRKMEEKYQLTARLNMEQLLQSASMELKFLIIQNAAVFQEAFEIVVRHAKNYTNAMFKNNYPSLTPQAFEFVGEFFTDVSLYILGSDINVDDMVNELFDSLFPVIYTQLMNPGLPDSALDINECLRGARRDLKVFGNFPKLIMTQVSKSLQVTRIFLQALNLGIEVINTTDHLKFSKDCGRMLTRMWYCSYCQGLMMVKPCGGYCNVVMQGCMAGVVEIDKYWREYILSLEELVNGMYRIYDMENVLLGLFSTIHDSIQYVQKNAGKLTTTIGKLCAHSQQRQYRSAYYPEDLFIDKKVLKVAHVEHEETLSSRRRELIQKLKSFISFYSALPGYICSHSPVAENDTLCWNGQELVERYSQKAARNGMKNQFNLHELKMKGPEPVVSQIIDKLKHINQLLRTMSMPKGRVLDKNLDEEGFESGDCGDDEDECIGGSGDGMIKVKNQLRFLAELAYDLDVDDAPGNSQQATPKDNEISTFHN

[3] = target: T3, human CD16A-158V expressed on CHO-K1 cells (human, UniProt P08637 17-254); assay: flow cytometry, CHO-K1-hCD16A-158V cells, geometric mean
T3 construct: whole, on cells; also called hCD16A-158V; CHO-K1-hCD16A-158V
T3 sequence (P08637 17-254 F176V): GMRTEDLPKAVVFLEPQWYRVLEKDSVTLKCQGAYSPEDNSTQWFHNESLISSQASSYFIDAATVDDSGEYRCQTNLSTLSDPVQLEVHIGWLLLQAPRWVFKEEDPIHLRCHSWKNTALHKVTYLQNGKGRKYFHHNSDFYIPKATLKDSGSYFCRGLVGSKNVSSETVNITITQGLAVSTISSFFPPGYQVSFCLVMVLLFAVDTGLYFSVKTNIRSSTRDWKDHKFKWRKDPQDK

[4] = target: T4, human CD32B expressed on CHO-K1 cells (human, UniProt P31994 43-310); assay: flow cytometry, CHO-K1-hCD32B cells, geometric mean
T4 construct: whole, on cells; also called hCD32B
T4 sequence (looked up): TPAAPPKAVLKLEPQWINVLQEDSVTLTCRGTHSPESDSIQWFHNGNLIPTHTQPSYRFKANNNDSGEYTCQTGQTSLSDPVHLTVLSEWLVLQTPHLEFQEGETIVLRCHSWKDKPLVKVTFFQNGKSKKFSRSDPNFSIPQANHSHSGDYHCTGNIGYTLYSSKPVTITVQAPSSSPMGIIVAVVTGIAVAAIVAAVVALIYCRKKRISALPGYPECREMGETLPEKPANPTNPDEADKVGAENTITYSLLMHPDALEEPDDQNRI
From the text: (§1) The purpose of the assay was to evaluate the binding of BsAb to each of the hFcγRs.

[5] = target: T3, human CD16A-158V expressed on CHO-K1 …; assay: flow cytometry, CHO-K1-hCD16A-158V cells, geometric mean; remark: listed apart in the source
From the text: as §1

[6] = target: T1, human CD16A-158F expressed on CHO-K1 …; assay: flow cytometry, CHO-K1-hCD16A-158F cells, geometric mean; remark: listed apart in the source
From the text: as §1

[7] = target: T3, human CD16A-158V expressed on CHO-K1 …; assay: flow cytometry, CHO-K1-hCD16A-158V cells, Alexa Fluor 647 anti-human IgG Fc, geometric mean
Method: (§2) In order to evaluate the binding activity of the chimeric mAbs to human CD16A expressed on cells, cell-based binding assay was employed as followed. […] The antibody dilutions were incubated with 1×10⁵ indicated cells in the 96-well microplate for one hour at 4° C. The antibodies binding to the antigen on the cell surface were detected with PE fluorophore-conjugated anti-human IgG Fc secondary antibodies (ThermoFisher scientific, Cat. No. 12-4998-82) at a dilution rate of 1:1000. Cells were analyzed by flow cytometer LSRFortessa Cell Analyzer (BD Biosciences). Data were analyzed with Flowjo 10.0 software. The graph and statistics analysis were generated with four-parameter nonlinear regression curve fit in Graphpad Prism 9 software.
(§3) The assay was performed following the protocol described above. The antibodies binding to the antigen on the cell surface were detected with Alexa Fluor® 647 AffiniPure™ F(ab′)₂ fragment goat anti-human IgG Fcγ fragment specific secondary antibody (Jackson Immuno Research, Cat. No. 109-606-098) at a dilution rate of 1:2000.

[8] = target: T1, human CD16A-158F expressed on CHO-K1 …; assay: flow cytometry, CHO-K1-hCD16A-158F cells, Alexa Fluor 647 anti-human IgG Fc, geometric mean
Method: as §2, §3

[9] = target: T5, human CD16B-NA1 expressed on CHO-K1 cells (human, UniProt O75015 17-200); assay: flow cytometry, CHO-K1-hCD16B-NA1 cells, Alexa Fluor 647 anti-human IgG Fc, geometric mean
T5 construct: whole, on cells; also called hCD16B-NA1; CHO-K1-hCD16B-NA1
T5 sequence (O75015 other isoform, or with tags, fused parts or gaps): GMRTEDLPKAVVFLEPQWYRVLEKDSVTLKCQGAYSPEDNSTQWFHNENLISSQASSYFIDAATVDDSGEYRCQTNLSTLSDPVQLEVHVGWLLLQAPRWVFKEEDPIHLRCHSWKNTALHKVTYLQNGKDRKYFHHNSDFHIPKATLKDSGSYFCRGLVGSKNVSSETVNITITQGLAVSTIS
Method: as §2, §3

[10] = target: T6, cynomolgus CD16 expressed on CHO-K1 cells (cynomolgus, UniProt Q8SPW2 17-254); assay: flow cytometry, CHO-K1-cyno CD16 cells, Alexa Fluor 647 anti-human IgG Fc, geometric mean
T6 construct: whole, on cells; also called cyno CD16; CHO-K1-cynoCD16
T6 sequence (Q8SPW2 17-254): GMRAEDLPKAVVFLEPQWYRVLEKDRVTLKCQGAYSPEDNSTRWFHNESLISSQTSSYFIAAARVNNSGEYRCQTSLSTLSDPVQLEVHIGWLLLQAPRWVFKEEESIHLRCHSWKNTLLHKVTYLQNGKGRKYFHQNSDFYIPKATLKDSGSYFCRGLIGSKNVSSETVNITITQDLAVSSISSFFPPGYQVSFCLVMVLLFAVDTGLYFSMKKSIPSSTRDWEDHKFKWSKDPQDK
Method: as §2, §3

T1 sequence (P08637 17-254): as the sequence (P08637 17-254 F176V) above, with V160F counted along it

B1: GPC3-45H6E8-z19p1-hIgG1LALAPG (bispecific antibody)
heavy chain (anti-GPC3 heavy chain hIgG1 LALAPG, (G4S)4 linker, 45H6E8-z19p1 scFv): QVQLVQSGAEVKKPGASVKVSCKASGYTFTDYEMHWVRQAPGQGLEWMGAIHPGSGGTAYNQKFKGRVTMTRDTSTSTVYMELSSLRSEDTAVYYCARYYSYAYWGQGTLVTVSSASTKGPSVFPLAPSSKSTSGGTAALGCLVKDYFPEPVTVSWNSGALTSGVHTFPAVLQSSGLYSLSSVVTVPSSSLGTQTYICNVNHKPSNTKVDKKVEPKSCDKTHTCPPCPAPEAAGGPSVFLFPPKPKDTLMISRTPEVTCVVVDVSHEDPEVKFNWYVDGVEVHNAKTKPREEQYNSTYRVVSVLTVLHQDWLNGKEYKCKVSNKALGAPIEKTISKAKGQPREPQVYTLPPSREEMTKNQVSLTCLVKGFYPSDIAVEWESNGQPENNYKTTPPVLDSDGSFFLYSKLTVDKSRWQQGNVFSCSVMHEALHNHYTQKSLSLSPGKGGGGSGGGGSGGGGSGGGGSQVQLVQSGAEVKKPGASVKVSCKVSGYTLTDYYMQWVRQAPGKGLEWIGWIDPEQGDTEYAPKFQGRVTMTADTSTDTAYMELSSLRSEDTAVYYCTTGGNYVDWGQGTTVTVSSGGGGSGGGGSGGGGSDIQMTQSPSFLSASVGDRVTITCKASQNVGTAVAWYQQKPGKAPKLLIYSASNRYTGVPDRFSGSGSGTDFTLTISSLQPEDFATYFCQQYSSYPLLTFGQGTRLEIK
light chain: DIVMTQTPLSLSVTPGQPASISCRSSQSLVHSNGNTYLQWYLQKPGQSPQLLIYKVSNRFSGVPDRFSGSGSGTDFTLKISRVEAEDVGVYYCFQSIHVPYTFGGGTKLEIKRTVAAPSVFIFPPSDEQLKSGTASVVCLLNNFYPREAKVQWKVDNALQSGNSQESVTEQDSKDSTYSLSSTLTLSKADYEKHKVYACEVTHQGLSSPVTKSFNRGEC
EC50 (read off the curve) [1]: ~2 nM | EC50 (read off the curve) [2]: ~0.3 nM | EC50 (read off the curve) [3]: ~1 nM

B2: GPC3-45H6E8-z21p1-hIgG1LALAPG (bispecific antibody)
heavy chain (anti-GPC3 heavy chain hIgG1 LALAPG, (G4S)4 linker, 45H6E8-z21p1 scFv): QVQLVQSGAEVKKPGASVKVSCKASGYTFTDYEMHWVRQAPGQGLEWMGAIHPGSGGTAYNQKFKGRVTMTRDTSTSTVYMELSSLRSEDTAVYYCARYYSYAYWGQGTLVTVSSASTKGPSVFPLAPSSKSTSGGTAALGCLVKDYFPEPVTVSWNSGALTSGVHTFPAVLQSSGLYSLSSVVTVPSSSLGTQTYICNVNHKPSNTKVDKKVEPKSCDKTHTCPPCPAPEAAGGPSVFLFPPKPKDTLMISRTPEVTCVVVDVSHEDPEVKFNWYVDGVEVHNAKTKPREEQYNSTYRVVSVLTVLHQDWLNGKEYKCKVSNKALGAPIEKTISKAKGQPREPQVYTLPPSREEMTKNQVSLTCLVKGFYPSDIAVEWESNGQPENNYKTTPPVLDSDGSFFLYSKLTVDKSRWQQGNVFSCSVMHEALHNHYTQKSLSLSPGKGGGGSGGGGSGGGGSGGGGSQVQLVQSGAEVKKPGASVKVSCKVSGYTLTDYYMQWVRQAPGKGLEWMGWIDPEQGDTEYAPKFQGRVTMTADTSTDTAYMELSSLRSEDTAVYYCTTGGNYVDWGQGTTVTVSSGGGGSGGGGSGGGGSDIQMTQSPSFLSASVGDRVTITCKASQNVGTAVAWYQQKPGKAPKLLIYSASNRYTGVPDRFSGSGSGTDFTLTISSLQPEDFATYFCQQYSSYPLLTFGQGTRLEIK
light chain: DIVMTQTPLSLSVTPGQPASISCRSSQSLVHSNGNTYLQWYLQKPGQSPQLLIYKVSNRFSGVPDRFSGSGSGTDFTLKISRVEAEDVGVYYCFQSIHVPYTFGGGTKLEIKRTVAAPSVFIFPPSDEQLKSGTASVVCLLNNFYPREAKVQWKVDNALQSGNSQESVTEQDSKDSTYSLSSTLTLSKADYEKHKVYACEVTHQGLSSPVTKSFNRGEC
EC50 (read off the curve) [1]: ~2 nM | EC50 (read off the curve) [2]: ~0.3 nM | EC50 (read off the curve) [3]: ~1 nM

B3: CCR8-hIgG1DE (antibody)
heavy chain: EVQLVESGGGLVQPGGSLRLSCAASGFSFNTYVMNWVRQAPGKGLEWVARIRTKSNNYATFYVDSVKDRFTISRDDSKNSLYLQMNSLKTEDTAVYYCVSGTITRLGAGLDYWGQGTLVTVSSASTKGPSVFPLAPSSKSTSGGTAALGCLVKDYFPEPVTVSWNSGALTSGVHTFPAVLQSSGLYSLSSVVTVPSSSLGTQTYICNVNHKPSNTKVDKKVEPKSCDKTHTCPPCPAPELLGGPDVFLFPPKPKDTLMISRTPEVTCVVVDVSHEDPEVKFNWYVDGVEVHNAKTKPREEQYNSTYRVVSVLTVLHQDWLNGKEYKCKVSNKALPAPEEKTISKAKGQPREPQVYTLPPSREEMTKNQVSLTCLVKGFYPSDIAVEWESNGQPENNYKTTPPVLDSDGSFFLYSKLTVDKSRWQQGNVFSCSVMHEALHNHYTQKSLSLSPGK
light chain: DIVMTQSPLSLPVTPGEPASISCRSSKSLLHSNANTYLYWYLQKPGQSPQLLIYRMSNLASGVPDRFSGSGSGTAFTLKISRVEAEDVGVYYCMQHLEYPFTFGGGTKLEIKRTVAAPSVFIFPPSDEQLKSGTASVVCLLNNFYPREAKVQWKVDNALQSGNSQESVTEQDSKDSTYSLSSTLTLSKADYEKHKVYACEVTHQGLSSPVTKSFNRGEC
notes: also called eADCC CCR8 mAb with Fc-DE (S239D/I332E)
binding result [4]: binds | EC50 [5]: 0.8 nM | EC50 [6]: 1.4 nM

B4: CCR8-45H6E8-hIgG1 (bispecific antibody)
heavy: not shown
light: DIVMTQSPLSLPVTPGEPASISCRSSKSLLHSNANTYLYWYLQKPGQSPQLLIYRMSNLASGVPDRFSGSGSGTAFTLKISRVEAEDVGVYYCMQHLEYPFTFGGGTKLEIKRTVAAPSVFIFPPSDEQLKSGTASVVCLLNNFYPREAKVQWKVDNALQSGNSQESVTEQDSKDSTYSLSSTLTLSKADYEKHKVYACEVTHQGLSSPVTKSFNRGEC
notes: Format 1: anti-CCR8 IgG1 with wildtype Fc and 45H6E8 scFv at the C-terminus of each heavy chain; also called CCR8-45H6E8-hIgG1 BsAb; CCR8-45H6E8 WT BsAb
binding result [4]: binds | EC50 [5]: 0.1 nM | EC50 [6]: 0.095 nM

B5: CCR8-hIgG1DLE (antibody)
heavy chain: EVQLVESGGGLVQPGGSLRLSCAASGFSFNTYVMNWVRQAPGKGLEWVARIRTKSNNYATFYVDSVKDRFTISRDDSKNSLYLQMNSLKTEDTAVYYCVSGTITRLGAGLDYWGQGTLVTVSSASTKGPSVFPLAPSSKSTSGGTAALGCLVKDYFPEPVTVSWNSGALTSGVHTFPAVLQSSGLYSLSSVVTVPSSSLGTQTYICNVNHKPSNTKVDKKVEPKSCDKTHTCPPCPAPELLGGPDVFLFPPKPKDTLMISRTPEVTCVVVDVSHEDPEVKFNWYVDGVEVHNAKTKPREEQYNSTYRVVSVLTVLHQDWLNGKEYKCKVSNKALPLPEEKTISKAKGQPREPQVYTLPPSREEMTKNQVSLTCLVKGFYPSDIAVEWESNGQPENNYKTTPPVLDSDGSFFLYSKLTVDKSRWQQGNVFSCSVMHEALHNHYTQKSLSLSPGK
light chain: DIVMTQSPLSLPVTPGEPASISCRSSKSLLHSNANTYLYWYLQKPGQSPQLLIYRMSNLASGVPDRFSGSGSGTAFTLKISRVEAEDVGVYYCMQHLEYPFTFGGGTKLEIKRTVAAPSVFIFPPSDEQLKSGTASVVCLLNNFYPREAKVQWKVDNALQSGNSQESVTEQDSKDSTYSLSSTLTLSKADYEKHKVYACEVTHQGLSSPVTKSFNRGEC
notes: also called eADCC CCR8 mAb with Fc-DLE (S239D/A330L/I332E)
binding result [4]: binds | EC50 [5]: 0.75 nM | EC50 [6]: 1.2 nM

B6: CCR8-hIgG1Afucosylated (antibody)
heavy: not shown
light: DIVMTQSPLSLPVTPGEPASISCRSSKSLLHSNANTYLYWYLQKPGQSPQLLIYRMSNLASGVPDRFSGSGSGTAFTLKISRVEAEDVGVYYCMQHLEYPFTFGGGTKLEIKRTVAAPSVFIFPPSDEQLKSGTASVVCLLNNFYPREAKVQWKVDNALQSGNSQESVTEQDSKDSTYSLSSTLTLSKADYEKHKVYACEVTHQGLSSPVTKSFNRGEC
modifications: chain 1 pos 303 (EU N297): the Fc N-glycan lacks core fucose (afucosylated); the letters are unchanged
notes: also called anti-hCCR8 monoclonal antibody with Fc-afucosylated; copies: 2 + 2
binding result [4]: binds | EC50 [5]: 0.45 nM | EC50 [6]: 3.5 nM

B7: 45H6E8-z13 (antibody, V domains shown)
VH: QVQLVQSGAEVKKPGASVKVSCKVSGYTLTDYYMQWVRQAPGKGLEWMGWIDPENGDTEYAPKFQGRVTMTEDTSTDTAYMELSSLRSEDTAVYYCATGGNYVDWGQGTTVTVSS
VL: DIQMTQSPSFLSASVGDRVTITCKASQNVGTAVAWYQQKPGKAPKLLIYSASNRYTGVPDRFSGSGSGTDFTLTISSLQPEDFATYFCQQYSSYPLLTFGQGTRLEIK
notes: also called HU-VH1-1 / HU-VL1-3
EC50 (read off the curve) [7]: ~0.4 nM | EC50 (read off the curve) [8]: ~0.4 nM | binding result [9]: no binding (tested: 100 nM) | EC50 (read off the curve) [10]: ~1 nM

B8: 45H6E8-z17 (antibody, human IgG1, V domains shown)
VH: QVQLVQSGAEVKKPGASVKVSCKVSGYTLKDYYMQWVRQAPGKGLEWIGWIDPENGDTEYAPKFQGKATMTADTSTDTAYMELSSLRSEDTAVYYCTTGGNYVDWGQGTTVTVSS
VL: DIQMTQSPSFLSASVGDRVTITCKASQNVGTAVAWYQQKPGKAPKLLIYSASNRYTGVPDRFSGSGSGTDFTLTISSLQPEDFATYFCQQYSSYPLLTFGQGTRLEIK
notes: Human IgG1 LALAPG constant region; also called HU-VH1-5 / HU-VL1-3
EC50 (read off the curve) [7]: ~0.4 nM | EC50 (read off the curve) [8]: ~0.4 nM | binding result [9]: no binding (tested: 100 nM) | EC50 (read off the curve) [10]: ~1 nM
